Laboratory results as given in patent publication US20240182536A1 (MURAL ONCOLOGY, published 2024).
Numbering of substitutions follows the chain as printed. In names and notes the source's numbering stands.

T1: interleukin 18 binding protein (IL-18BP) (UniProt O95998 31-194)
T1 sequence (looked up): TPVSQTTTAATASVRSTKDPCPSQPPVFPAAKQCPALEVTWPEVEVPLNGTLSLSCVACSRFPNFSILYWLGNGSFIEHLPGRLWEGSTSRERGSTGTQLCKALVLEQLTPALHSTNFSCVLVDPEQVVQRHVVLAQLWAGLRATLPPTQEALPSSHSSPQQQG

T2: IL-18 receptors on HEK-Blue IL-18 reporter cells (UniProt Q13478 19-541; O95256 20-599, limits assumed)
T2 sequence (looked up) 1: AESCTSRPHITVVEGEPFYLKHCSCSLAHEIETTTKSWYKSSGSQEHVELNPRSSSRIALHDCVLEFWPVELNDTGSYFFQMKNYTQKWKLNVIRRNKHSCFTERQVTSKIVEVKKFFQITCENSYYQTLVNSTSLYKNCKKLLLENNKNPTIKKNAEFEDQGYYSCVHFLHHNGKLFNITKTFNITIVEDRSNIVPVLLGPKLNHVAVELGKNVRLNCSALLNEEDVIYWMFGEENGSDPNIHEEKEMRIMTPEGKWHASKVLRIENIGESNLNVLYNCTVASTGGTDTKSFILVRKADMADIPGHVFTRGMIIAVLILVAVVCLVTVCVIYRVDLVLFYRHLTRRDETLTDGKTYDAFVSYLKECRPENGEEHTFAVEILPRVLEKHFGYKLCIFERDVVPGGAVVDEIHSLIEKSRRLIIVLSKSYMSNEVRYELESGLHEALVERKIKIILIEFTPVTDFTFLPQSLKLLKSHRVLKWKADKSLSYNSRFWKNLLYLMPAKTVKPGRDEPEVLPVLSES
T2 sequence (looked up) 2: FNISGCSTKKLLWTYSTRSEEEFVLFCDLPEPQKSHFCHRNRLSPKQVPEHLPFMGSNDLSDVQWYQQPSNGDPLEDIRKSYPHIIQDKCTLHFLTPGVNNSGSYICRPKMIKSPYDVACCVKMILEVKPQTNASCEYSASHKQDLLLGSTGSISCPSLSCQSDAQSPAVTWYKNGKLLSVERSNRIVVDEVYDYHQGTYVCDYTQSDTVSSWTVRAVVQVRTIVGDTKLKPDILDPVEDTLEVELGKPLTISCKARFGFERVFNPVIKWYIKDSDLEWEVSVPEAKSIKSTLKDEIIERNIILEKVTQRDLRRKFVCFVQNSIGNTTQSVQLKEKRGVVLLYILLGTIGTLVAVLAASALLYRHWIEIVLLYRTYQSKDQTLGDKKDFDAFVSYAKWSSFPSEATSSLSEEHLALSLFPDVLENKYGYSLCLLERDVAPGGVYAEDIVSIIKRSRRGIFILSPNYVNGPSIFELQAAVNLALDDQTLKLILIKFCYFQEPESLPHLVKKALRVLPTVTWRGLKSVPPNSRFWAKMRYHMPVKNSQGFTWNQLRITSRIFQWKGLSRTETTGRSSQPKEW

B1: IL-18 variant K53H, S55R (ligand)
chain: YFGKLESKLSVIRNLNDQVLFIDQGNRPLFEDMTDSDMRDNAPRTIFIISMYHDRQPRGMAVTISVKSEKISTLSSENKIISFKEMNPPDNIKDTKSDIIFFQRSVPGHDNKMQFESSSYEGYFLASEKERDLFKLILKKEDELGDRSIMFTVQNED
B2: IL-18 variant K8R, L9G, S10C, K53G, S55A, R104G (ligand)
chain: B1 chain with K8R, L9G, S10C, H53G, R55A, R104G
B3: IL-18 variant S36Q, D40T, K53P, S55L (ligand)
chain: B1 chain with S36Q, D40T, H53P, R55L
B4: IL-18 variant K53H, S55H, N87D, H109I (ligand)
chain: B1 chain with R55H, N87D, H109I
B5: IL-18 variant T34N, S36Y, D37E, D40Q, N41Q, K53D, S55D (ligand)
chain: B1 chain with T34N, S36Y, D37E, D40Q, N41Q, H53D, R55D
B6: IL-18 variant K53D, S55L (ligand)
chain: B1 chain with H53D, R55L
B7: IL-18 variant T34S, S36L, D37E, D40Y, N41M, K53T, S55K, P107K, H109Q (ligand)
chain: B1 chain with T34S, S36L, D37E, D40Y, N41M, H53T, R55K, P107K, H109Q
B8: IL-18 variant T34N, S36Y, D40H, N41T, K53G, S55Y (ligand)
chain: B1 chain with T34N, S36Y, D40H, N41T, H53G, R55Y
B9: IL-18 variant T34E, S36P, D40A, N41G, K53T, S55R (ligand)
chain: B1 chain with T34E, S36P, D40A, N41G, H53T
B10: IL-18 variant K53H, S55Y (ligand)
chain: B1 chain with R55Y
B11: IL-18 variant K53G, S55I, R104K, P107Y (ligand)
chain: B1 chain with H53G, R55I, R104K, P107Y
B12: IL-18 variant L15I, K53H, S55M (ligand)
chain: B1 chain with L15I, R55M
B13: IL-18 variant S36E, D37E, D40V, N41S, K53Y, S55V, H109Y (ligand)
chain: B1 chain with S36E, D37E, D40V, N41S, H53Y, R55V, H109Y

molecular target: T1, interleukin 18 binding protein (IL-18BP); assay: cell-based or functional assay

Row | Binder | HEK-Blue activity, +100 nM BP, DF-10000 | HEK-Blue activity, +100 nM BP, DF-100,000 | HEK-Blue activity, +100 nM BP, DF-1,000,000 | Ratio (-BP/+BP), DF-10000 | Ratio (-BP/+BP), DF-100,000 | Ratio (-BP/+BP), DF-1,000,000
1 | B1 | 0.12 | 0.09 | 0.09 | 0.97 | 1.09 | 1
2 | B2 | 0.12 | 0.14 | 0.1 | 0.88 | 0.92 | 1.03
3 | B3 | 0.09 | 0.09 | 0.09 | 1.09 | 1.44 | 0.9
4 | B4 | 0.1 | 0.1 | 0.1 | 1.1 | 0.96 | 0.88
5 | B5 | 0.1 | 0.1 | 0.09 | 1.11 | 0.96 | 1
6 | B6 | 0.1 | 0.09 | 0.09 | 1.02 | 1.03 | 1.01
7 | B7 | 0.1 | 0.1 | 0.09 | 1.11 | 0.98 | 0.98
8 | B8 | 0.11 | 0.09 | 0.09 | 1.08 | 1.02 | 0.97
9 | B9 | 0.1 | 0.09 | 0.09 | 0.98 | 1.01 | 0.96
10 | B10 | 0.1 | 0.1 | 0.11 | 0.91 | 0.99 | 0.8
11 | B11 | 0.11 | 0.09 | 0.09 | 0.99 | 1 | 0.95
12 | B12 | 0.12 | 0.1 | 0.08 | 0.9 | 0.99 | 1.02
13 | B13 | 0.09 | 0.1 | 0.1 | 1.03 | 0.92 | 0.89

molecular target: T2, IL-18 receptors on HEK-Blue IL-18 …; assay: cell-based or functional assay

Row | Binder | HEK-Blue activity, No BP, DF-10000 | HEK-Blue activity, No BP, DF-100,000 | HEK-Blue activity, No BP, DF-1,000,000
14 | B1 | 0.12 | 0.1 | 0.09
15 | B2 | 0.1 | 0.13 | 0.1
16 | B3 | 0.09 | 0.13 | 0.08
17 | B4 | 0.11 | 0.1 | 0.09
18 | B5 | 0.11 | 0.09 | 0.09
19 | B6 | 0.11 | 0.09 | 0.09
20 | B7 | 0.11 | 0.1 | 0.09
21 | B8 | 0.12 | 0.1 | 0.09
22 | B9 | 0.09 | 0.1 | 0.09
23 | B10 | 0.09 | 0.09 | 0.09
24 | B11 | 0.1 | 0.09 | 0.09
25 | B12 | 0.11 | 0.1 | 0.09
26 | B13 | 0.09 | 0.09 | 0.09
